Source: PMC10187677 (RNA, 2023)

Key:
Test in all cases: pull-down
[1] = target: T1, His6-GIGYF2 GYF domain F592E (human, UniProt Q6Y7W6 529-597, F592E)
T1 sequence (looked up): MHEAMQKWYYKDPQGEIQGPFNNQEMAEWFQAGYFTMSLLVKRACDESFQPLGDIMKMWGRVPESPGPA

[2] = target: T2, His6-GIGYF2 GYF domain (residues 529-597) (human, UniProt Q6Y7W6 529-597)
T2 sequence (looked up): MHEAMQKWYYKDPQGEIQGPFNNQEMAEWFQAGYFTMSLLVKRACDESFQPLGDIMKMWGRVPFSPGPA

[3] = target: T3, His6-GIGYF1 GYF domain F533E (human, UniProt O75420 470-538, F533E)
T3 sequence (looked up): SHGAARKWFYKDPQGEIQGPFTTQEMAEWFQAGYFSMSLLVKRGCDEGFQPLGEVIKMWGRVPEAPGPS

[4] = target: T4, His6-GIGYF1 GYF domain (residues 470-538) (human, UniProt O75420 470-538)
T4 sequence (looked up): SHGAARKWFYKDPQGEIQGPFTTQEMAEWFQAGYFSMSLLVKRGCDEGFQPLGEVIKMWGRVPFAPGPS

Measured: binding result

B1: GST-tagged fragment of the first tetra-proline region of TTP (residues 68-78) (peptide, UniProt P26651 68-78, looked up)
chain: GWVPPPPGFAP
binds: [1] | [2] | [3] | [4]
